Data as given in the supplement of paper PMC9170038.

System: MS2 coat protein
Test: apparent KD of MS2 coat protein; designed switch direction (-1 OFF switch, 1 ON switch): 1; higher = weaker reporter binding
Method in brief: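 Designed RNA switches sharing common flanks were transcribed on Illumina chips by stalled E. coli RNA polymerase. They were titrated with SNAP-549-labelled MS2 coat protein, from 0.7 or 1.5 nM doubling to 3 µM, in Tris-HCl pH 7.5 buffer with KCl, MgCl2, BSA, DTT, tRNA and Tween-20. Titrations ran without input, with 200 uM small-molecule ligand, or with an oligonucleotide input. The apparent KD of each design is the median over its clusters, after curve-fitting of normalised cluster fluorescence.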

[1] = input ligand: microRNA oligo, concentration not stated
[2] = Eterna round: R95, input ligand: FMN 200 uM
[3] = Eterna round: R95, input ligand: microRNA oligo, concentration not stated
[4] = Eterna round: R95, input ligand: none

| Sequence | apparent KD of MS2 coat protein (input ligand: FMN 200 uM) [nM] | apparent KD of MS2 coat protein [1] [nM] | apparent KD of MS2 coat protein (input ligand: none) [nM] | apparent KD of MS2 coat protein [2] [nM] | apparent KD of MS2 coat protein [3] [nM] | apparent KD of MS2 coat protein [4] [nM] |
| --- | --- | --- | --- | --- | --- | --- |
| GCCGCGUUUCACGCCUACAUGAGGAUCACCCAUGUAUGUAGGCAGGAUAUCGUUUGCUUUGCAAACGAGAAGGGCUGUAGUGGC [salish99_SSNG3_R04_007] (Eterna round: R96, puzzle: Same State NG 3) | 41.7 | 92.3 | 116 |  |  |  |
| GCUAGGAUAUGAAGAGGAUCACCCUUUAGAAGGAGCAUUAGCUAGGAUAUGAAGAGGAUCACCCUUUAGAAGGAGCACUACUCU [pwkr ssNG3 DX 2xF5 +2xFMN.7] (Eterna round: R96, puzzle: Same State NG 3) | 531 | 286 | 292 |  |  |  |
| GCUCGUGGUAUUGUCUACAUGAGGAUCACCCAUGUAGGUGCGGAGGAUAUCUACGUGUCUCAUGUAGAGAAGGUCGUCACGAGC [SameState NG3 #99] (Eterna round: R96, puzzle: Same State NG 3) | 61.2 | 174 | 38.7 |  |  |  |
| GCUCGGCUGAUGGCCCACAUGAGGAUCACCCAUGUGAGUGGGCAGGAUAUCUAGAUUAAGGAUGUAGAGAAGGGCCUGCCGAGC [SameState NG3 #36] (Eterna round: R96, puzzle: Same State NG 3) | 2290 | 19 | 559 |  |  |  |
| ACAUGAGGAUCACCCAUGUAACACCUGAAAAUAAAACGAACACAGGAUAUCCCGGCAAGACACCGGGAGAAGGGUGAUCGAAGA [Eresorbe] (Eterna round: R96, puzzle: Same State NG 3) | 411 | 13.6 | 90.9 |  |  |  |
| GAGAGAUGGCGAGGAUAUUCGGUGAUAAUGAUAGAAGAAGGCGCUGACAUGAGGAUCACCCAUGUGGGAAUAAUCCAGAGAGAG [Parity 18 - Jieux - Same State NG 1] (Eterna round: R96, puzzle: Same State NG 1) | 283 | 73.8 | 226 |  |  |  |
| UUUGCAUGACGAGGAUAUCAUUUAUUUCUUGAUUGAGAAGGCGUUCUUUUUACUACCUAACAUGAGGAUCACCCAUGUGACAGU [JR_SSNG1_Sub048] (Eterna round: R96, puzzle: Same State NG 1) |  | 11.3 |  |  |  |  |
| UAACAGUACAAUUUAGAUCUACAUGAGGAUCACCCAUGUACUGAGGAUAUCAGCUCGAUUAGAGCUGAGAAGGCAGAAGAACUA [SSNG3/11-A2] (Eterna round: R96, puzzle: Same State NG 3) | 48.5 | 173 | 344 |  |  |  |
| CAGUGCUGUCGAGAGGAUAUGCGGUGAUGGACAUGAGGAUCACCCAUGUUAGCGACAGCGUCACGGCAGAAGGCUCUACCCACUG [Soteed Omei mod 46] (puzzle: Same State 2) |  |  |  | 11.7 | 15.3 | 18.2 |
| GCUAGAAUAAAAGCCAACAUGAGGAUCACCCAUGUAUGUUGGCAGGAUAUCGUUUGCAAAGCAAACGAGAAGGGCCAUACUAGC [Mat - Same State NG 3 - JL Mod - D23] (Eterna round: R96, puzzle: Same State NG 3) | 45.1 | 109 | 117 |  |  |  |
| CGAGAGUGCGUAGGAUAUCCGAAAGGAAGUGUAGGAGAAGGGCGGAACGCUCAUCGAAAACAUGAGGAUCACCCAUGUACAAAU [PowerStrip SSNG 1.17] (Eterna round: R96, puzzle: Same State NG 1) | 24.7 | 62.7 | 43.9 |  |  |  |
| GGAGCCGGUACUGAGGAUAUUCAUAUUAAAACAUGAGGAUCACCCAUGUAGGCCAGAAGGCCUUGGGAGAAGGCAGACCAGCUCG [Atgexeedri] (Eterna round: R96, puzzle: Same State 2) | 18 | 190 | 271 |  |  |  |
| AGCCGAGACACAGGAUAUAGAUGUUUACAUGAGGAUCACCCAUGUAGCAACACGUGGUAGUGAUUCUAGAAGGGUGCUCGGCGC [Omei SS(NG)2 Cv11] (Eterna round: R96, puzzle: Same State NG 2) | 36.3 | 116 | 167 |  |  |  |
| UGCUACGGAGACAUGAGGAUCACCCAUGUCGCUGCUUAAGGGCAGGAUAUGAAAGGGAAUCCCAAUCAGAAGGGCCGCAGCCAC [Isanxeanor] (Eterna round: R96, puzzle: Same State NG 3) | 35.3 | 22.8 | 32.6 |  |  |  |
| ACAAGCUUUUCUGCAUUGAAAGGUUGGUUACAUGAGGAUCACCCAUGUUUUUAUGAAAAUAAUGCUCCUCGUCUUAU [JR_SHM208A_Sub093] (puzzle: Sensor for hsa-mir-208a) |  |  |  | 264 | 19.8 | 252 |
| GAAGGAUGAGCGUAGGAUAUAGGAGGAGUGACAUGAGGAUCACCCAUGUGGUAUGAGGGAGGAUUCUAGAAGGACGCGGUAGAAG [JR_SS2_Sub065] (puzzle: Same State 2) |  |  |  | 89.9 | 150 | 161 |

| Sequence | apparent KD of MS2 coat protein (input ligand: FMN 200 uM) [nM] | apparent KD of MS2 coat protein [1] [nM] | apparent KD of MS2 coat protein (input ligand: none) [nM] | apparent KD of MS2 coat protein [2] [nM] | apparent KD of MS2 coat protein [3] [nM] | apparent KD of MS2 coat protein [4] [nM] |
| --- | --- | --- | --- | --- | --- | --- |
| GCUGCAAGGGCAGGAUAUGGGUCCAAAGCGCAAGUGCGCUUUGGUACAUGAGGAUCACCCAUGUCCCAGAAGGGCCCAUGCGGC [Edenbiatar] (Eterna round: R96, puzzle: Same State NG 2) | 15.5 | 78.4 | 123 |  |  |  |
| AGAAAGAAACAUGAGGAUCACCCAUGUACAAGCUUUUUGCUCGUCUUAUUACAUGGGUUCAUGGGUGAUCGGGAUGU [Tim MacKenzie] (puzzle: Sensor for hsa-mir-208a version 2) |  |  |  | 11.1 | 13.1 | 19.9 |
| UGUUGUAUUACAGGAUAUCUAGUAUUUUGAUUUAGAGAAGGGUAUUCACAUGAGGAUCACCCAUGUAUAUACGAGGAAGUUGUG [JMF's solution 44] (Eterna round: R96, puzzle: Same State NG 1) |  | 44 |  |  |  |  |
| AGUCCUGAAUAAAUUAAACAGAGACAUGUACAUGAGGAUCACCCAUGUCAUGUGCAAGUUUUAUGCUCGUCAUAUAA [Sensorship 18 - Jieux - Sensor for hsa-mir-208a] (puzzle: Sensor for hsa-mir-208a) |  |  |  | 13 | 8.35 | 12.8 |
| GUGGUCAGACAUGAGGAUCACCCAUGUGGAAUAAAUAAGGAGAAGGAUAUUUAAUAUAGGAUAUAAAAGAAGGUCUGGUUGGUG (Eterna round: R96, puzzle: Same State NG 3) | 99.4 | 55.6 | 92.5 |  |  |  |
| UGUUAGUAGACAGGAUAUUGAAUGUUAAGUAUUAACAUGAGGAUCACCCAUGUAUUUGAUUGGUACAAGAAGGGUCAAGUUUGU [JR_SSNG2_Sub013] (Eterna round: R96, puzzle: Same State NG 2) | 487 | 191 | 320 |  |  |  |
| UAGAGAGGAAGCGAGGAUAUCGUGGGAGGGACAUGAGGAUCACCCAUGUAUGAUGUUGAGAGGAACGAGAAGGCGCAGGAAAGUA [JR_SS2_Sub077] (puzzle: Same State 2) |  |  |  | 151 | 137 | 349 |
| AACAGUCGGCGAGGAUAUGGACGUACGGACUAACCCGUGCAGCUCACAUGAGGAUCACCCAUGUUCUAGAAGGCGCCACUGAAA [Onesusatza] (Eterna round: R96, puzzle: Same State NG 2) | 15.9 | 87.6 | 147 |  |  |  |
| GUGGUGGGUUGAGGAUAUUGGUUGUUGUUGUCCCACAUGAGGAUCACCCAUGUGGGUUGUGGUUUUGAGAAGGUUGGUUGCCGG [salish99_SSNG2_r04_053] (Eterna round: R96, puzzle: Same State NG 2) |  | 15 |  |  |  |  |
| AGCUAAAACGAAGGAUAUACAAACAUGAGGAUCACCCAUGUAUACAUGGUUUGUUGUGACCACAUGUAGAAGGUCGUACUAACA [SameState NG2 #18] (Eterna round: R96, puzzle: Same State NG 2) | 178 | 405 | 358 |  |  |  |
| GCUAGAAAUAAAGCCAACAUGAGGAUCACCCAUGUAUGUUGGCAGGAUAUCGUAUGCAAAGCAUACGAGAAGGGCCAAACUAGC [Mat - Same State NG 3 - JL Mod - D3] (Eterna round: R96, puzzle: Same State NG 3) | 37.3 | 85 | 117 |  |  |  |
| UAAAUACAUGAGGAUCACCCAUGUCAAAAGACAUGAGGAUAUGUACAGACUUCGGUCUGUACAGAAGGCAUGAAAA [salish99_ss1_r3_095] (Eterna round: R96, puzzle: Same State 1) |  | 397 |  |  |  |  |
| AUAAUACAUGAGGAUCACCCAUGUAAUUUAACUUGUAAGAUCAAGGAUAUCAGCUCGUUUAGAGCUGAGAAGGUGAUCACAUGU [SSNG3/20-A3] (Eterna round: R96, puzzle: Same State NG 3) |  | 60.2 |  |  |  |  |
| UUCUCUUUUUAGAGACAAGCUUUUUGAUCACAUGAGGAUCACCCAUGUCUCGUCUUAUGAUUUACUUCGUUAUUUCU [BA Sensor hsa-mir-208a - 2 - 6] (puzzle: Sensor for hsa-mir-208a) |  |  |  | 160 | 15.6 | 125 |
| AUUAAUAAUCGAGGAUAUCACGUCGAAUAGACGUGAGAAGGCGAUCAUAACAUGAGGAUCACCCAUGUAUUACAUGAAGUUAAU [SSNG1/4-B1] (Eterna round: R96, puzzle: Same State NG 1) |  | 20 |  |  |  |  |
